Source: patent US20090208416A1

What was measured:
[1] = biological target: NKG2A on rhesus monkey (Macaca mulatta) NK cells (rhesus monkey (Macaca mulatta)) (UniProt Q9MZJ3); experiment: FACS rhesus whole blood, animal O967
[2] = biological target: NKG2A on rhesus monkey (Macaca mulatta) NK cells (rhesus monkey (Macaca mulatta)) (UniProt Q9MZJ3); experiment: FACS rhesus whole blood, animal 31828
[3] = biological target: NKG2A on rhesus monkey (Macaca mulatta) NK cells (rhesus monkey (Macaca mulatta)) (UniProt Q9MZJ3); experiment: FACS rhesus whole blood, animal 34459
[4] = biological target: NKG2A on rhesus monkey (Macaca mulatta) NK cells (rhesus monkey (Macaca mulatta)) (UniProt Q9MZJ3); experiment: FACS rhesus whole blood, animal R00007
[5] = biological target: NKG2A on rhesus monkey (Macaca mulatta) NK cells (rhesus monkey (Macaca mulatta)) (UniProt Q9MZJ3); experiment: FACS rhesus whole blood, animal R00013
[6] = biological target: NKG2A on rhesus monkey (Macaca mulatta) NK cells (rhesus monkey (Macaca mulatta)) (UniProt Q9MZJ3); experiment: FACS rhesus whole blood, animal R00023
[7] = biological target: NKG2A on rhesus monkey (Macaca mulatta) NK cells (rhesus monkey (Macaca mulatta)) (UniProt Q9MZJ3); experiment: FACS rhesus whole blood, animal R00025
[8] = biological target: NKG2A on rhesus monkey (Macaca mulatta) NK cells (rhesus monkey (Macaca mulatta)) (UniProt Q9MZJ3); experiment: FACS rhesus whole blood, animal R00037
[9] = biological target: NKG2A on rhesus monkey (Macaca mulatta) NK cells (rhesus monkey (Macaca mulatta)) (UniProt Q9MZJ3); experiment: FACS rhesus whole blood, animal R00041
[10] = biological target: NKG2A on rhesus monkey (Macaca mulatta) NK cells (rhesus monkey (Macaca mulatta)) (UniProt Q9MZJ3); experiment: FACS rhesus whole blood, animal R00061
[11] = biological target: NKG2A on rhesus monkey (Macaca mulatta) NK cells (rhesus monkey (Macaca mulatta)) (UniProt Q9MZJ3); experiment: FACS rhesus whole blood, animal R00077
[12] = biological target: NKG2A on rhesus monkey (Macaca mulatta) NK cells (rhesus monkey (Macaca mulatta)) (UniProt Q9MZJ3); experiment: FACS rhesus whole blood, animal R00085
[13] = biological target: NKG2A on rhesus monkey (Macaca mulatta) NK cells (rhesus monkey (Macaca mulatta)) (UniProt Q9MZJ3); experiment: FACS rhesus whole blood, animal R00093
[14] = biological target: NKG2A on rhesus monkey (Macaca mulatta) NK cells (rhesus monkey (Macaca mulatta)) (UniProt Q9MZJ3); experiment: FACS rhesus whole blood, animal R00099
[15] = biological target: NKG2A on rhesus monkey (Macaca mulatta) NK cells (rhesus monkey (Macaca mulatta)) (UniProt Q9MZJ3); experiment: FACS rhesus whole blood, animal R00101
[16] = biological target: NKG2A on rhesus monkey (Macaca mulatta) NK cells (rhesus monkey (Macaca mulatta)) (UniProt Q9MZJ3); experiment: FACS rhesus whole blood, animal R99273
[17] = biological target: NKG2A on cynomolgus monkey NK cells (cynomolgus monkey) (UniProt Q68VD2); experiment: FACS cynomolgus whole blood, animal 1221
UniProt Q68VD2, sequence (Q68VD2 entry or part of it): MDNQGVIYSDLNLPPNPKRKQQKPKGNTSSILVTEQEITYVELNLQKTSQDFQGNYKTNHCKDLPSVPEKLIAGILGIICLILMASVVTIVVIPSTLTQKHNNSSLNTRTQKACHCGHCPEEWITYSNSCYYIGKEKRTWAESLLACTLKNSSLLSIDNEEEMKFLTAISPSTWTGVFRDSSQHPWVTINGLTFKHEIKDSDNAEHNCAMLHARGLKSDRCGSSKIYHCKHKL

[18] = biological target: NKG2A on cynomolgus monkey NK cells (cynomolgus monkey) (UniProt Q68VD2); experiment: FACS cynomolgus whole blood, animal M859
[19] = biological target: NKG2A on cynomolgus monkey NK cells (cynomolgus monkey) (UniProt Q68VD2); experiment: FACS cynomolgus whole blood, animal R390
[20] = biological target: NKG2A on cynomolgus monkey NK cells (cynomolgus monkey) (UniProt Q68VD2); experiment: FACS cynomolgus whole blood, animal T270
[21] = biological target: NKG2A on cynomolgus monkey NK cells (cynomolgus monkey) (UniProt Q68VD2); experiment: FACS cynomolgus whole blood, animal T788
[22] = biological target: NKG2A on cynomolgus monkey NK cells (cynomolgus monkey) (UniProt Q68VD2); experiment: FACS cynomolgus whole blood, animal AK565
[23] = biological target: NKG2A on cynomolgus monkey NK cells (cynomolgus monkey) (UniProt Q68VD2); experiment: FACS cynomolgus whole blood, animal AK729
[24] = biological target: NKG2A on cynomolgus monkey NK cells (cynomolgus monkey) (UniProt Q68VD2); experiment: FACS cynomolgus whole blood, animal AL210
[25] = biological target: NKG2A on cynomolgus monkey NK cells (cynomolgus monkey) (UniProt Q68VD2); experiment: FACS cynomolgus whole blood, animal AL303
[26] = biological target: NKG2A on cynomolgus monkey NK cells (cynomolgus monkey) (UniProt Q68VD2); experiment: FACS cynomolgus whole blood, animal AL389
[27] = biological target: NKG2A on rhesus monkey (Macaca mulatta) NK cells (rhesus monkey (Macaca mulatta)) (UniProt Q9MZJ3); experiment: FACS rhesus whole blood, mean over animals
[28] = biological target: NKG2A on rhesus monkey (Macaca mulatta) NK cells (rhesus monkey (Macaca mulatta)) (UniProt Q9MZJ3); experiment: FACS rhesus whole blood, animal R00073 (5.6 kg)
[29] = biological target: NKG2A on rhesus monkey (Macaca mulatta) NK cells (rhesus monkey (Macaca mulatta)) (UniProt Q9MZJ3); experiment: FACS rhesus whole blood, animal R00073 (6.1 kg)
[30] = biological target: NKG2A on cynomolgus monkey NK cells (cynomolgus monkey) (UniProt Q68VD2); experiment: FACS cynomolgus whole blood, mean of 10 animals
[31] = biological target: NKG2A on rhesus monkey (Macaca mulatta) NK cells (rhesus monkey (Macaca mulatta)) (UniProt Q9MZJ3); experiment: FACS rhesus whole blood, animal R00055

UniProt Q9MZJ3, sequence (Q9MZJ3 whole entry): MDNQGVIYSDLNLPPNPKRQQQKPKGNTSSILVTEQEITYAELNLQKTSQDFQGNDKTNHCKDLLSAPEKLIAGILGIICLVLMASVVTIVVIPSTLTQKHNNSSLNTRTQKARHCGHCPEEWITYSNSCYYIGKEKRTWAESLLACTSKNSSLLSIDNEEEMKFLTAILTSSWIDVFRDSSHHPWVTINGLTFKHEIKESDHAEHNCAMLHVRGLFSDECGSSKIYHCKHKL

Work on Z199 anti-NKG2A monoclonal antibody yielded a % NK+ [1] of 84.8%, an MFI [1] of 62.3 and an MFI NK+ [1] of 73.4. It also gave a % NK+ [2] of 99.8%, an MFI [2] of 101 and an MFI NK+ [2] of 101. For the same substance, the % NK+ [3] was 96.2%, the MFI [3] was 63.8 and the MFI NK+ [3] was 66.3. For the same substance, the % NK+ [4] was 99.6%, the MFI [4] was 34.9 and the MFI NK+ [4] was 35. For the same substance, the % NK+ [5] was 97.8%, the MFI [5] was 38.8 and the MFI NK+ [5] was 39.7. For the same substance, the % NK+ [6] was 96.4%, the MFI [6] was 34 and the MFI NK+ [6] was 35.3. For the same substance, the % NK+ [7] was 97.3%, the MFI [7] was 30 and the MFI NK+ [7] was 30.9. For the same substance, the % NK+ [8] was 96.9%, the MFI [8] was 26.7 and the MFI NK+ [8] was 27.5. The % NK+ [9] was 89.6%, the MFI [9] was 33.1 and the MFI NK+ [9] was 36.9. The % NK+ [10] was 40.7%, the MFI [10] was 1.6 and the MFI NK+ [10] was 2.4. It also gave a % NK+ [11] of 97.1%, an MFI [11] of 30.4 and an MFI NK+ [11] of 31.3. The % NK+ [12] was 91.9%, the MFI [12] was 68.4 and the MFI NK+ [12] was 74.4. For the same substance, the % NK+ [13] was 97.9%, the MFI [13] was 81.9 and the MFI NK+ [13] was 83.6. For the same substance, the % NK+ [14] was 97.6%, the MFI [14] was 31.1 and the MFI NK+ [14] was 31.8. The % NK+ [15] was 98.7%, the MFI [15] was 37.1 and the MFI NK+ [15] was 37.6. For the same substance, the % NK+ [16] was 98%, the MFI [16] was 32.7 and the MFI NK+ [16] was 33.4. The % NK+ [17] was 96.7%, the MFI [17] was 105 and the MFI NK+ [17] was 109. The % NK+ [18] was 95.1%, the MFI [18] was 144 and the MFI NK+ [18] was 152. For the same substance, the % NK+ [19] was 99%, the MFI [19] was 32.3 and the MFI NK+ [19] was 32.6. It also gave a % NK+ [20] of 97.7%, an MFI [20] of 113 and an MFI NK+ [20] of 116. The % NK+ [21] was 97%, the MFI [21] was 123 and the MFI NK+ [21] was 126. For the same substance, the % NK+ [22] was 90.7%, the MFI [22] was 28.2 and the MFI NK+ [22] was 31. The % NK+ [23] was 99.4%, the MFI [23] was 37.4 and the MFI NK+ [23] was 37.7. For the same substance, the % NK+ [24] was 92.7%, the MFI [24] was 126 and the MFI NK+ [24] was 136. The % NK+ [25] was 99.1%, the MFI [25] was 129 and the MFI NK+ [25] was 130. The % NK+ [26] was 95.5%, the MFI [26] was 223 and the MFI NK+ [26] was 234. It also gave a % NK+ (Mean) [27] of 93.2%, an MFI (Mean) [27] of 29.6 and an MFI NK+ (Mean) [27] of 30.6. For the same substance, the % NK+ [28] was 99.1%, the MFI [28] was 31.6 and the MFI NK+ [28] was 31.9. The % NK+ [29] was 98%, the MFI [29] was 31.9 and the MFI NK+ [29] was 32.6. For the same substance, the % NK+ (Mean) [30] was 96.3%, the MFI (Mean) [30] was 106 and the MFI NK+ (Mean) [30] was 110.
In the case of mouse IgG2b isotype control (antibody), the % NK+ [1] was 0.5%, the MFI [1] was 0.7 and the % NK+ [2] was 0.5%. The MFI [2] was 0.7, the % NK+ [3] was 1.2% and the MFI [3] was 0.7. For the same substance, the % NK+ [4] was 0.7%, the MFI [4] was 0.4 and the % NK+ [5] was 0.2%. It also gave an MFI [5] of 0.6, a % NK+ [6] of 0.6% and an MFI [6] of 0.3. For the same substance, the % NK+ [7] was 0.4%, the MFI [7] was 0.4 and the % NK+ [8] was 0.3%. For the same substance, the MFI [8] was 0.5, the % NK+ [9] was 0.3% and the MFI [9] was 0.4. It also gave a % NK+ [31] of 0.9%, an MFI [31] of 0.6 and a % NK+ [10] of 0.2%. For the same substance, the MFI [10] was 0.6, the % NK+ [11] was 0.5% and the MFI [11] was 0.4. It also gave a % NK+ [12] of 0.3%, an MFI [12] of 0.7 and a % NK+ [13] of 0.4%. It also gave an MFI [13] of 0.6, a % NK+ [14] of 0.3% and an MFI [14] of 0.5. For the same substance, the % NK+ [15] was 0.4%, the MFI [15] was 0.5 and the % NK+ [16] was 0.6%. It also gave an MFI [16] of 0.4, a % NK+ [17] of 1.3% and an MFI [17] of 0.8. It also gave a % NK+ [18] of 0.2%, an MFI [18] of 0.6 and a % NK+ [19] of 0.2%. It also gave an MFI [19] of 0.5, a % NK+ [20] of 0.2% and an MFI [20] of 0.6. For the same substance, the % NK+ [21] was 0.4%, the MFI [21] was 0.6 and the % NK+ [22] was 0.3%. It also gave an MFI [22] of 0.6, a % NK+ [23] of 0.3% and an MFI [23] of 0.6. It also gave a % NK+ [24] of 0.3%, an MFI [24] of 0.7 and a % NK+ [25] of 0.14%. It also gave an MFI [25] of 0.7, a % NK+ [26] of 0.4% and an MFI [26] of 0.8. It also gave a % NK+ (Mean) [27] of 0.5%, an MFI (Mean) [27] of 0.5 and a % NK+ [28] of 0.39%. The MFI [28] was 0.4, the % NK+ [29] was 0.3% and the MFI [29] was 0.3. For the same substance, the % NK+ (Mean) [30] was 0.4% and the MFI (Mean) [30] was 0.7.
